Experiment [1] has as its target T1, human Gα13 fused in its N-terminal part with the tags Twin-Strep-tag and FLAG, overexpressed in HEK293 cells (human, UniProt Q14344 1-377).
T1 construct: not shown: N-terminal Twin-Strep-tag and FLAG tags
T1 sequence (looked up): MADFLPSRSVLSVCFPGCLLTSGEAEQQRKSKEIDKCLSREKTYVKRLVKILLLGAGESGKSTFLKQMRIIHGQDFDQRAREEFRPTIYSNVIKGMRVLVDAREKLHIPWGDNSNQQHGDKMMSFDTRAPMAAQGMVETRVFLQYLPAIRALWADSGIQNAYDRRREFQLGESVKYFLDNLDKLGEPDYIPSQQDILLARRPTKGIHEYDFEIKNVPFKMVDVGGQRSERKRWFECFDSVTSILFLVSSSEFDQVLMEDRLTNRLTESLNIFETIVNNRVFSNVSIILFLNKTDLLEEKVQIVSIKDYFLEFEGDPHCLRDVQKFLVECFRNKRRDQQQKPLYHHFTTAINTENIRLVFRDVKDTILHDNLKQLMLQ
Briefly: HTRF on HEK293 cells overexpressing the TST-Flag-tagged Gα: antibody-d2 (10 nM) + anti-Twin-Strep-tag-Lumi4 Tb, in buffer, GDP 10 µM or GTPγS 10 µM. In general terms: In TR-FRET formats the signal depends on donor and acceptor labels being close together.

Experiment [2] deals with T2, human Gα12 fused in its N-terminal part with the tags Twin-Strep-tag and FLAG, overexpressed in HEK293 cells (human, UniProt Q03113 1-381).
T2 construct: not shown: N-terminal Twin-Strep-tag and FLAG tags
T2 sequence (looked up): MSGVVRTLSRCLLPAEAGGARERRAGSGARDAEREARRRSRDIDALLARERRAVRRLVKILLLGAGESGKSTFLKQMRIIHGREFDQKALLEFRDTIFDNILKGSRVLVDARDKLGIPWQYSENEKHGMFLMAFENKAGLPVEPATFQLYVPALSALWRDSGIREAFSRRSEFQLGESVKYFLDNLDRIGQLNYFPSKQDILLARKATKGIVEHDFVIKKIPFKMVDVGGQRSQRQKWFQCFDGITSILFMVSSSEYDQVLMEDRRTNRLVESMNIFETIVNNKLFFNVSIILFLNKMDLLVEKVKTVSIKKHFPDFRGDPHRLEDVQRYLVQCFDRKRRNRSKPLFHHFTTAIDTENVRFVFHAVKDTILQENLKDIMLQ
The experiment is described as above.

Experiment [3] has as its target T3, human Gαq fused in its N-terminal part with the tags Twin-Strep-tag and FLAG, overexpressed in HEK293 cells (human, UniProt P50148 1-359).
T3 construct: not shown: N-terminal Twin-Strep-tag and FLAG tags
T3 sequence (looked up): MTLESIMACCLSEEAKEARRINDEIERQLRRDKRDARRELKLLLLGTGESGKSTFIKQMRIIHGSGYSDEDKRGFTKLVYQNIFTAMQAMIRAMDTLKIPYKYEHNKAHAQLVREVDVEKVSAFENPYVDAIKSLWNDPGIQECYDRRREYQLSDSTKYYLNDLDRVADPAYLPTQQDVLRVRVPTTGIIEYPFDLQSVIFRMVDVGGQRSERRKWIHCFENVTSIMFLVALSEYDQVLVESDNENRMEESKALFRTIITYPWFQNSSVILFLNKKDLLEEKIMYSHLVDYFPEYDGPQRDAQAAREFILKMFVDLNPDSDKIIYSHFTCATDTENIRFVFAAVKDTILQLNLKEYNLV
The experiment is described as above.

The target in experiment [4] is T4, human Gαi2 fused in its N-terminal part with the tags Twin-Strep-tag and FLAG, overexpressed in HEK293 cells (human, UniProt P04899 1-355).
T4 construct: not shown: N-terminal Twin-Strep-tag and FLAG tags
T4 sequence (P04899 whole entry, the tested form may be a part): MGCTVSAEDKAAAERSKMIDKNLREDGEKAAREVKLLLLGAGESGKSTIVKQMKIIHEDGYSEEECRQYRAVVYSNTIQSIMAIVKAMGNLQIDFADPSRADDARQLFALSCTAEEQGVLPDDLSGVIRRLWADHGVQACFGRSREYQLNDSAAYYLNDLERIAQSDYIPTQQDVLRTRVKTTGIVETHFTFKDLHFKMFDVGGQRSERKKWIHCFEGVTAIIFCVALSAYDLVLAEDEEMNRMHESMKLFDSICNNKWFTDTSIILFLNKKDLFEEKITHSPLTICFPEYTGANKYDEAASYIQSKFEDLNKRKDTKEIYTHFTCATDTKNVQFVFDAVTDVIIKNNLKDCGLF
Put plainly: HTRF on HEK293 cells overexpressing the TST-Flag-tagged Gα: antibody-d2 (10 nM) + anti-Twin-Strep-tag-Lumi4 Tb (0.5 nM), in buffer, GDP 10 µM or GTPγS 10 µM.

The target of experiment [5] is T5, human Gαi3 fused in its N-terminal part with the tags Twin-Strep-tag and FLAG, overexpressed in HEK293 cells (human, UniProt P08754 1-354).
T5 construct: not shown: N-terminal Twin-Strep-tag and FLAG tags
T5 sequence (P08754 whole entry, the tested form may be a part): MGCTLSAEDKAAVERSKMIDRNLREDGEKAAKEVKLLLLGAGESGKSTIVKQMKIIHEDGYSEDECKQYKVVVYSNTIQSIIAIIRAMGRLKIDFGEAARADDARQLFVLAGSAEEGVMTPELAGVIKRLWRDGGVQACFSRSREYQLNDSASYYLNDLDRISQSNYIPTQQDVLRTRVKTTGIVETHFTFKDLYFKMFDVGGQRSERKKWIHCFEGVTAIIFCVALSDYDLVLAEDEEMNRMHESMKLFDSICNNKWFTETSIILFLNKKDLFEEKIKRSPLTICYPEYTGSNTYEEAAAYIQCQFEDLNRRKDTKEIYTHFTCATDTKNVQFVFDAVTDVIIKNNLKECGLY
Described as above.

Experiment [6] concerns the target T6, human Gαz fused in its N-terminal part with the tags Twin-Strep-tag and FLAG, overexpressed in HEK293 cells (human, UniProt P19086 1-355).
T6 construct: not shown: N-terminal Twin-Strep-tag and FLAG tags
The description is as above.

T6 sequence (P19086 whole entry, the tested form may be a part): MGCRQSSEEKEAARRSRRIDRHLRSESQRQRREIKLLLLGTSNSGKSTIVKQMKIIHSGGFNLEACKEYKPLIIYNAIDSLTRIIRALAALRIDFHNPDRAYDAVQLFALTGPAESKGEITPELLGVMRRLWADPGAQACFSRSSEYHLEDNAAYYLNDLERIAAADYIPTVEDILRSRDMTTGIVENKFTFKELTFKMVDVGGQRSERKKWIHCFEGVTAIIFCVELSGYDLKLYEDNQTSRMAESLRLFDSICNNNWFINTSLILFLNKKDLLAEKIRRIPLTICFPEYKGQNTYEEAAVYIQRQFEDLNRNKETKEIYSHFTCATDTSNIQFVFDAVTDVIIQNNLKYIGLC

B1: antibody DSV36S (antibody, V domains shown)
VH: EVQLQQSGAELVRPGALVKLSCKASGFNIKDYYMHWVKQRPEQGLEWIGWIDPENGNTIYDPKFQGKASITADTSSNTAYLQLSSLTSEDTAVYYCTRGGGYYSDWYFDVWGAGTTVTVSS
VL: QIVLTQSPAIMSASPGEKVTMTCSASSSVSYMHWYQQKSGTSPKRWIYDTSKLASGVPARFSGSGSGTSYSLTISSMEAEDAATYYCQQWSSNPPITFGAGTKLELK
notes: Used unlabeled or labeled with d2 (acceptor) or Lumi4Tb (donor); also called DSV36S-d2; DSV36S-Lumi4Tb
For B1, the binding result in experiment [1] was “no binding (tested: 10 nM)”; in experiment [2] it was “no binding (tested: 10 nM)”; in experiment [3], “no binding (tested: 10 nM)”; in experiment [4] it was “binds”; in experiment [5] it was “binds”; in experiment [6], “binds”.

These data come from patent US20230091315A1 (CISBIO BIOASSAYS, published 2023).
